The labels stand for the following.
B1: … (peptide)
peptide: LTSTVQLIM
B2: … (peptide)
peptide: CLTSTVQLIM
B3: … (peptide)
peptide: SLLNYLREM
B4: … (peptide)
peptide: QLIMQLMPFG
B5: … (peptide)
peptide: MQLMPFGCL
B6: … (peptide)
peptide: VQLIMQLMPF
B7: … (peptide)
peptide: MQLMPFGCLL
B8: … (peptide)
peptide: STVQLIMQL
B9: … (peptide)
peptide: QLIMQLMPF
B10: … (peptide)
peptide: IMQLMPFGCL
B11: … (peptide)
peptide: LIMQLMPFG
B12: … (peptide)
peptide: IMQLMPFGC
B13: … (peptide)
peptide: MANGSLLNYL
B14: … (peptide)
peptide: YMANGSLLN

The first experiment concerns the target HLA-A01.01 (human). The experiment can be described thus: pMHC-I complex dissociation at 37 C, radiolabeled b2m. The settings on record: remark: other sources report otherwise.
Consider B1, for which the Stability (half-life (hr.)) worked out at 6.22 min.

For the molecule B2, the Stability (half-life (hr.)) came to 0 min.

Another experiment has as its target HLA-A02.01 (human). Described as above. As to conditions: remark: other sources report otherwise.
B3 yielded a Stability (half-life (hr.)) of 183 min.

Molecule B4 returned a Stability (half-life (hr.)) of 0 min.

Regarding B5, the Stability (half-life (hr.)) came out at 22.1 min.

In the case of B6, the Stability (half-life (hr.)) amounted to 0 min.

Turning to B7, the Stability (half-life (hr.)) was 22.9 min.

B8 showed a Stability (half-life (hr.)) of 0 min.

Turning to B9, the Stability (half-life (hr.)) turned out to be 20.4 min.

In the case of B10, the Stability (half-life (hr.)) amounted to 30.9 min.

B11 displayed a Stability (half-life (hr.)) of 0 min.

On to B12, for which the Stability (half-life (hr.)) is 22.2 min.

With B2, the Stability (half-life (hr.)) was 0 min.

For B13, the Stability (half-life (hr.)) was 0 min.

On to B14, for which the Stability (half-life (hr.)) came to 0 min.

The target of another experiment is HLA-A24.02 (human). The experiment is described as above. As to conditions: remark: other sources report otherwise.
Molecule B6 gave a Stability (half-life (hr.)) of 0 min.

With B7, the Stability (half-life (hr.)) was determined as 0 min.

Molecule B9 showed a Stability (half-life (hr.)) of 22.1 min.

Consider B10, for which the Stability (half-life (hr.)) was found to be 0 min.

A further experiment has as its target HLA-B07.02 (human). The description is as above. As to conditions: remark: other sources report otherwise.
Regarding B3, the Stability (half-life (hr.)) came out at 0 h.

In turn, B5 displayed a Stability (half-life (hr.)) of 0 h.

For the molecule B13, the Stability (half-life (hr.)) came to 0 h.

Another experiment has as its target HLA-A01.01 (human). The experiment can be described thus: competition with radiolabeled reference peptide on prepared MHC class I. The settings on record: remark: other sources report otherwise.
In the case of B1, the Affinity turned out to be 2.89 µM.

As to B2, the Affinity turned out to be 8.28 µM.

For another experiment, the target named is HLA-A02.01 (human). The experiment is described as above. As to conditions: remark: other sources report otherwise.
B3 displayed an Affinity of 67.7 nM.

On to B4, for which the Affinity was 5210 nM.

On to B5, for which the Affinity turned out to be 116 nM.

B6 had an Affinity of 4940 nM.

As to B7, the Affinity was 16.3 nM.

Take B8: the Affinity was 7260 nM.

B9 gave an Affinity of 193 nM.

On to B10, for which the Affinity came to 653 nM.

On to B11, for which the Affinity worked out at 3340 nM.

As to B12, the Affinity was 1210 nM.

In the case of B2, the Affinity was 537 nM.

Regarding B13, the Affinity stood at 1010 nM.

Regarding B14, the Affinity turned out to be 4000 nM.

For a further experiment, the target named is HLA-A24.02 (human). The description is as above. As to conditions: remark: other sources report otherwise.
Molecule B6 had an Affinity of 4.1 µM.

With B7, the Affinity is 18.9 µM.

In turn, B10 registered an Affinity of 14.1 µM.

Another experiment concerns the target HLA-B07.02 (human). Described as above. As to conditions: remark: other sources report otherwise.
Molecule B3 had an Affinity of 866 nM.

The molecule B5 registered an Affinity of 1590 nM.

For the origin of these results see patent publication US20230398218A1, “RAS NEOANTIGENS AND USES THEREOF” (priority 2020, published 2023).
